Experimental data published in publication PMC10958042.

B1: ATGL (PNPLA2, patatin-like phospholipase domain-containing protein 2), human, full length / CGI-58 (ABHD5, 1-acylglycerol-3-phosphate O-acyltransferase ABHD5), human (parent)
chain 1: MFPREKTWNISFAGCGFLGVYYVGVASCLREHAPFLVANATHIYGASAGALTATALVTGVCLGEAGAKFIEVSKEARKRFLGPLHPSFNLVKIIRSFLLKVLPADSHEHASGRLGISLTRVSDGENVIISHFNSKDELIQANVCSGFIPVYCGLIPPSLQGVRYVDGGISDNLPLYELKNTITVSPFSGESDICPQDSSTNIHELRVTNTSIQFNLRNLYRLSKALFPPEPLVLREMCKQGYRDGLRFLQRNGLLNRPNPLLALPPARPHGPEDKDQAVESAQAEDYSQLPGEDHILEHLPARLNEALLEACVEPTDLLTTLSNMLPVRLATAMMVPYTLPLESALSFTIRLLEWLPDVPEDIRWMKEQTGSICQYLVMRAKRKLGRHLPSRLPEQVELRRVQSLPSVPLSCAAYREALPGWMRNNLSLGDALAKWEECQRQLLLGLFCTNVAFPPEALRMRAPADPAPAPADPASPQHQLAGPAPLLSTPAPEARPVIGALGL
chain 2: MAAEEEEVDSADTGERSGWLTGWLPTWCPTSISHLKEAEEKMLKCVPCTYKKEPVRISNGNKIWTLKFSHNISNKTPLVLLHGFGGGLGLWALNFGDLCTNRPVYAFDLLGFGRSSRPRFDSDAEEVENQFVESIEEWRCALGLDKMILLGHNLGGFLAAAYSLKYPSRVNHLILVEPWGFPERPDLADQDRPIPVWIRALGAALTPFNPLAGLRIAGPFGLSLVQRLRPDFKRKYSSMFEDDTVTEYIYHCNVQTPSGETAFKNMTIPYGWAKRPMLQRIGKMHPDIPVSVIFGARSCIDGNSGTSIQSLRPHSYVKTIAILGAGHYVYADQPEEFNQKVKEICDTVD

Variants of: B1
Experiment: LUMIER: Protein A-ATGL variant and firefly luciferase-partner co-expressed in HEK293T, lysates immunoprecipitated on IgG-coated plates, co-precipitated partner measured as luciferase luminescence
Conditions: with CGI-58 (ABHD5, 1-acylglycerol-3-phosphate O-acyltransferase ABHD5), transient co-transfection, IgG-coated LUMITRAC plates, 2 h at 4 °C, three PBS washes, Bright-Glo luciferase reagent, triplicates per assay, two …, scale: log2 fold change of co-immunoprecipitated luminescence relative to wild-type ATGL within each experiment

chain 1 MFPREKTWNISFAGCGFLGVYYVGVASCLREHAPFLVANATHIYGASAGALTATALVTGVCAGEAGAKFIEVSKEARKRFLGPLHPSFNLVKIIRSFLLKVLPADSHEHASGRLGISLTRVSDGENVIISHFNSKDELIQANVCSGFIPVYCGLIPPSLQGVRYVDGGISDNLPLYELKNTITVSPFSGESDICPQDSSTNIHELRVTNTSIQFNLRNLYRLSKALFPPEPLVLREMCKQGYRDGLRFLQRNGLLNRPNPLLALPPARPHGPEDKDQAVESAQAEDYSQLPGEDHILEHLPARLNEALLEACVEPTDLLTTLSNMLPVRLATAMMVPYTLPLESALSFTIRLLEWLPDVPEDIRWMKEQTGSICQYLVMRAKRKLGRHLPSRLPEQVELRRVQSLPSVPLSCAAYREALPGWMRNNLSLGDALAKWEECQRQLLLGLFCTNVAFPPEALRMRAPADPAPAPADPASPQHQLAGPAPLLSTPAPEARPVIGALGL [chain 1 L62A]
screen value (parent: 0.32, not graded): -0.556
screen value (parent: 0.45, not graded): -0.528

chain 1 MFPREKTWNISFAGCGFLGVYYVGVASCLREHAPFLVANATHIYGASAGALTATALVTGVCLGEAGAKFKEVSKEARKRFLGPLHPSFNLVKIIRSFLLKVLPADSHEHASGRLGISLTRVSDGENVIISHFNSKDELIQANVCSGFIPVYCGLIPPSLQGVRYVDGGISDNLPLYELKNTITVSPFSGESDICPQDSSTNIHELRVTNTSIQFNLRNLYRLSKALFPPEPLVLREMCKQGYRDGLRFLQRNGLLNRPNPLLALPPARPHGPEDKDQAVESAQAEDYSQLPGEDHILEHLPARLNEALLEACVEPTDLLTTLSNMLPVRLATAMMVPYTLPLESALSFTIRLLEWLPDVPEDIRWMKEQTGSICQYLVMRAKRKLGRHLPSRLPEQVELRRVQSLPSVPLSCAAYREALPGWMRNNLSLGDALAKWEECQRQLLLGLFCTNVAFPPEALRMRAPADPAPAPADPASPQHQLAGPAPLLSTPAPEARPVIGALGL [chain 1 I70K]
screen value (parent: 0.32, not graded): -0.355
screen value (parent: 0.45, not graded): -0.676

chain 1 MFPREKTWNISFAGCGFLGVYYVGVASCLREHAPFLVANATHIYGASAGALTATALVTGVCLGEAGAKFIEVSKEARKRFLGPLHPSFNLVKIIRSFLLKVLPADSHEHASGRLGISLTRVSDGLNVIISHFNSKDELIQANVCSGFIPVYCGLIPPSLQGVRYVDGGISDNLPLYELKNTITVSPFSGESDICPQDSSTNIHELRVTNTSIQFNLRNLYRLSKALFPPEPLVLREMCKQGYRDGLRFLQRNGLLNRPNPLLALPPARPHGPEDKDQAVESAQAEDYSQLPGEDHILEHLPARLNEALLEACVEPTDLLTTLSNMLPVRLATAMMVPYTLPLESALSFTIRLLEWLPDVPEDIRWMKEQTGSICQYLVMRAKRKLGRHLPSRLPEQVELRRVQSLPSVPLSCAAYREALPGWMRNNLSLGDALAKWEECQRQLLLGLFCTNVAFPPEALRMRAPADPAPAPADPASPQHQLAGPAPLLSTPAPEARPVIGALGL [chain 1 E125L]
screen value (parent: 0.32, not graded): -0.624
screen value (parent: 0.45, not graded): -0.2

chain 1 MFPREKTWNISFAGCGFLGVYYVGVASCLREHAPFLVANATHIYGASAGALTATALVTGVCLGEAGAKFIEVSKEARKRFLGPLHPSFNLVKIIRSFLLKVLPADSHEHASGLLGISLTRVSDGENVIISHFNSKDELIQANVCSGFIPVYCGLIPPSLQGVRYVDGGISDNLPLYELKNTITVSPFSGESDICPQDSSTNIHELRVTNTSIQFNLRNLYRLSKALFPPEPLVLREMCKQGYRDGLRFLQRNGLLNRPNPLLALPPARPHGPEDKDQAVESAQAEDYSQLPGEDHILEHLPARLNEALLEACVEPTDLLTTLSNMLPVRLATAMMVPYTLPLESALSFTIRLLEWLPDVPEDIRWMKEQTGSICQYLVMRAKRKLGRHLPSRLPEQVELRRVQSLPSVPLSCAAYREALPGWMRNNLSLGDALAKWEECQRQLLLGLFCTNVAFPPEALRMRAPADPAPAPADPASPQHQLAGPAPLLSTPAPEARPVIGALGL [chain 1 R113L]
screen value (parent: 0.32, not graded): -0.625
screen value (parent: 0.45, not graded): -0.259

chain 1 MFPREKTWNISFAGCGFLGVYYVGVASCLREHAPFLVANATHIYGASAGALTATALVTGVCLGEAGAKFIEVSKEARKRFLGPLHPSFNLVKIIRSFLLKVLPADSHEHASGKLGISLTRVSDGENVIISHFNSKDELIQANVCSGFIPVYCGLIPPSLQGVRYVDGGISDNLPLYELKNTITVSPFSGESDICPQDSSTNIHELRVTNTSIQFNLRNLYRLSKALFPPEPLVLREMCKQGYRDGLRFLQRNGLLNRPNPLLALPPARPHGPEDKDQAVESAQAEDYSQLPGEDHILEHLPARLNEALLEACVEPTDLLTTLSNMLPVRLATAMMVPYTLPLESALSFTIRLLEWLPDVPEDIRWMKEQTGSICQYLVMRAKRKLGRHLPSRLPEQVELRRVQSLPSVPLSCAAYREALPGWMRNNLSLGDALAKWEECQRQLLLGLFCTNVAFPPEALRMRAPADPAPAPADPASPQHQLAGPAPLLSTPAPEARPVIGALGL [chain 1 R113K]
screen value (parent: 0.32, not graded): 0.189
screen value (parent: 0.45, not graded): 0.534

chain 1 MFPREKTWNISFAGCGFLGVYYVGVASCLREHAPFLVANATHIYGASAGALTATALVTGVCLGEAGAKFIEVSKEARKRFLGPLHPSFNLVKIIKSFLLKVLPADSHEHASGRLGISLTRVSDGENVIISHFNSKDELIQANVCSGFIPVYCGLIPPSLQGVRYVDGGISDNLPLYELKNTITVSPFSGESDICPQDSSTNIHELRVTNTSIQFNLRNLYRLSKALFPPEPLVLREMCKQGYRDGLRFLQRNGLLNRPNPLLALPPARPHGPEDKDQAVESAQAEDYSQLPGEDHILEHLPARLNEALLEACVEPTDLLTTLSNMLPVRLATAMMVPYTLPLESALSFTIRLLEWLPDVPEDIRWMKEQTGSICQYLVMRAKRKLGRHLPSRLPEQVELRRVQSLPSVPLSCAAYREALPGWMRNNLSLGDALAKWEECQRQLLLGLFCTNVAFPPEALRMRAPADPAPAPADPASPQHQLAGPAPLLSTPAPEARPVIGALGL [chain 1 R95K]
screen value (parent: 0.32, not graded): 0.177
screen value (parent: 0.45, not graded): -0.0705
